Experimental data: patent US20030068675, “Position dependent recognition of GNN nucleotide triplets by zinc fingers” (published 2003)
Where a chain is given by its changes, count along the chain named.

Key:
Assay in all cases: EMSA
Conditions in all cases: tags: MBP fusion
[1] = molecular target: T1, ZFP SBS#1269 (synthetic)
T1 chain: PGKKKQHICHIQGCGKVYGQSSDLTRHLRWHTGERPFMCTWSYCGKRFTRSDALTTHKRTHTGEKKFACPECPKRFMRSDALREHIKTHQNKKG
Method in brief: (§1)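 Purified ZFP was titrated against labeled double-stranded target (1 nM or lower, at least 10-fold below expected Kd) carrying the natural binding site with flanks. Binding buffer was 10 mM Tris pH 7.5, 100 mM KCl, 1 mM MgCl2, 0.1 mM ZnCl2, 5 mM DTT, 10% glycerol, 0.02% BSA, with equilibration for at least 45 min. Bound and free target were separated on a 10% polyacrylamide gel.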

[2] = molecular target: T2, ZFP SBS#1268 (synthetic)
T2 chain: T1 chain with S51A, T55M, T56V
Method in brief: as §1

[3] = molecular target: T3, ZFP SBS#261 (synthetic)
T3 chain: T1 chain with Q20E, S21R, S22G, D23T, T25A, T55S, T56R, A81N, R83S, E84R
Method in brief: as §1

[4] = molecular target: T4, ZFP SBS#1287 (synthetic)
T4 chain: T1 chain with S22G, D23H, T25A, R50Q, D52G, T55A, T56R, R83T, E84R
Method in brief: as §1

[5] = molecular target: T5, ZFP SBS#1265 (synthetic)
T5 chain: T1 chain with Q20T, S21T, D23A, A81N, R83T, E84Q
Method in brief: as §1

[6] = molecular target: T6, ZFP SBS#1264 (synthetic)
T6 chain: T1 chain with Q20T, S21T, D23A, S51A, T55M, T56V, A81N, R83T, E84Q
Method in brief: as §1

[7] = molecular target: T7, ZFP SBS#1266 (synthetic)
T7 chain: T1 chain with Q20D, S21R, D23H, R50Q, D52S, A53H, T55A, T56R, A81N
Method in brief: as §1

[8] = molecular target: T8, ZFP SBS#1288 (synthetic)
T8 chain: T1 chain with Q20D, S21R, D23H, R50Q, D52S, A53H, T55A, T56R, A81N, R83T
Method in brief: as §1

[9] = molecular target: T9, ZFP SBS#1277 (synthetic)
T9 chain: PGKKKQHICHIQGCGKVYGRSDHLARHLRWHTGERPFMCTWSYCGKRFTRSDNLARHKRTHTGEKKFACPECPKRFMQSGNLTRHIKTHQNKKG
Method in brief: as §1

[10] = molecular target: T10, ZFP SBS#1241 (synthetic)
T10 chain: T1 chain with S22H, R26K, T55A, T56R, A81N, R83A, E84R
Method in brief: as §1

[11] = molecular target: ZFP SBS#1279 (synthetic)
Method in brief: as §1

[12] = molecular target: T11, ZFP SBS#1282 (synthetic)
T11 chain: T1 chain with Q20E, S21R, S22G, R50D, S51P, D52G, T55V, T56R, A81E, E84T
Method in brief: as §1

[13] = molecular target: ZFP SBS#1275 (synthetic)
Method in brief: as §1

[14] = molecular target: ZFP SBS#1274 (synthetic)
Method in brief: as §1

[15] = molecular target: ZFP SBS#490 (synthetic)
Method in brief: as §1

[16] = molecular target: ZFP SBS#998 (synthetic)
Method in brief: as §1

[17] = molecular target: T12, ZFP SBS#1004 (synthetic)
T12 chain: T1 chain with Q20R, S22D, D23N, R26T, A53N, T56K, A81T, E84S
Method in brief: as §1

[18] = molecular target: T13, ZFP SBS#1255 (synthetic)
T13 chain: T1 chain with Q20R, S22D, D23N, R26T, A53N, T56K, A81T, R83K, E84Q
Method in brief: as §1

[19] = molecular target: T14, ZFP SBS#1020 (synthetic)
T14 chain: T1 chain with Q20R, S22D, D23N, R26T, A53N, T56K, A81T, R83K, E84Q
Method in brief: as §1

[20] = molecular target: T15, ZFP SBS#1003 (synthetic)
T15 chain: T1 chain with Q20R, S22A, D23N, T25R, R26T, A53N, T56K, A81T, E84S
Method in brief: as §1

[21] = molecular target: T16, ZFP SBS#1249 (synthetic)
T16 chain: T1 chain with Q20R, S22D, D23E, R50Q, D52G, A53H, T56R, A81T
Method in brief: as §1

[22] = molecular target: T17, ZFP SBS#1253 (synthetic)
T17 chain: T1 chain with Q20R, S22D, D23E, R50Q, S51R, D52A, A53H, T55E, T56R, A81T
Method in brief: as §1

[23] = molecular target: T18, ZFP SBS#541 (synthetic, UniProt P08047)
T18 chain: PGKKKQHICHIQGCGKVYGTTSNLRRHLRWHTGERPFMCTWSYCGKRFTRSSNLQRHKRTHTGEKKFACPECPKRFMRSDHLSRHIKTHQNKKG
Method in brief: as §1

[24] = molecular target: T19, ZFP SBS#1258 (synthetic, UniProt P08047)
T19 chain: T18 chain with T20Q, T21S, S52D
Method in brief: as §1

[25] = molecular target: T20, ZFP SBS#1257 (synthetic, UniProt P08047)
T20 chain: T18 chain with R25A, S52D
Method in brief: as §1

[26] = molecular target: ZFP SBS#1250 (synthetic)
Method in brief: as §1

[27] = molecular target: ZFP SBS#1237 (synthetic)
Method in brief: as §1

[28] = molecular target: T21, ZFP SBS#1259 (synthetic)
T21 chain: T9 chain with H23S, A25L, R50D, S51R, N53H, A55T, Q78R, G80D, T83A
Method in brief: as §1

[29] = molecular target: T22, ZFP SBS#1260 (synthetic)
T22 chain: T9 chain with S21L, H23S, A25L, R50D, S51R, N53H, A55T, Q78R, G80D, T83A
Method in brief: as §1

[30] = molecular target: T23, ZFP SBS#1247 (synthetic)
T23 chain: T1 chain with Q20R, S22D, D23E, R50T, D52G, T56R, R83T, E84R
Method in brief: as §1

[31] = molecular target: T24, ZFP SBS#1246 (synthetic)
T24 chain: T1 chain with Q20R, S22D, D23E, R50T, D52G, A53S, T56R, R83T, E84R
Method in brief: as §1

[32] = molecular target: T25, ZFP SBS#1271 (synthetic)
T25 chain: T9 chain with H23A, A25R, R26E, R50Q, D52G, N53S, A55T, Q78R, G80D, N81A
Method in brief: as §1

[33] = molecular target: ZFP SBS#1236 (synthetic)
Method in brief: as §1

[34] = molecular target: ZFP SBS#1234 (synthetic)
Method in brief: as §1

[35] = molecular target: T26, ZFP SBS#1278 (synthetic)
T26 chain: T1 chain with S22G, D23S, A53N, T55R, A81N, R83A, E84R
Method in brief: as §1

Sequence of ZFP SBS#1274 (synthetic) (chain, as listed by the source): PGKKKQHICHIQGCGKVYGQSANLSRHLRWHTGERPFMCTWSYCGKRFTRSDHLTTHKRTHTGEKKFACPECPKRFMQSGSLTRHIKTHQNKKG
Sequence of ZFP SBS#1234 (synthetic) (chain, as listed by the source): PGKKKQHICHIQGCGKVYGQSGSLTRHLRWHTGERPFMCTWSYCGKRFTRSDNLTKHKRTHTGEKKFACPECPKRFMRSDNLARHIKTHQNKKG
Sequence of ZFP SBS#1275 (synthetic) (chain, as listed by the source): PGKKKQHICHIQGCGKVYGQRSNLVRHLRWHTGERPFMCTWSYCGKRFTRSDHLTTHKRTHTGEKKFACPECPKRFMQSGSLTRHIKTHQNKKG
Sequence of ZFP SBS#998 (synthetic) (chain, as listed by the source): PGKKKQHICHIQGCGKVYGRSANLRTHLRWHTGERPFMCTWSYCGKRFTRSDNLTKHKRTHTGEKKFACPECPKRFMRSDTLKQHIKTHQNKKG
Sequence of ZFP SBS#490 (synthetic) (chain, as listed by the source): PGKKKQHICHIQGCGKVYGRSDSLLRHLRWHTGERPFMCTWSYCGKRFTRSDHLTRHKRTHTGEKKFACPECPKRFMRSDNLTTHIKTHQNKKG
Sequence of ZFP SBS#1237 (synthetic) (chain, as listed by the source): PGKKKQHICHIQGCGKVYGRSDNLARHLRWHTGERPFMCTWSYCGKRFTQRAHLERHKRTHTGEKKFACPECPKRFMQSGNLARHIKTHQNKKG
Sequence of ZFP SBS#1250 (synthetic) (chain, as listed by the source): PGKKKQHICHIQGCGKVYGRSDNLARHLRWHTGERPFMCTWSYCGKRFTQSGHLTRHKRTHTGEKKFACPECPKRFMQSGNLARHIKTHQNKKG
Sequence of ZFP SBS#1236 (synthetic) (chain, as listed by the source): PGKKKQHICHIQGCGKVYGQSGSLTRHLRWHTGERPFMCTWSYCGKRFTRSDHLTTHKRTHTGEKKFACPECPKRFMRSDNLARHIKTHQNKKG

B1: CTGTTGGCT (dsDNA)
DNA 1: CTGTTGGCT
DNA 2: AGCCAACAG
B1 showed a Kd [1] of 12.3 nM and a Kd [2] of 1.52 nM.

B2: GAGGTGGCC (dsDNA)
DNA 1: GAGGTGGCC
DNA 2: GGCCACCTC
For B2, the Kd [3] was 0.5 nM.

B3: GTGGTAGGA (dsDNA)
DNA 1: GTGGTAGGA
DNA 2: TCCTACCAC
With B3 the Kd [4] was 0.152 nM.

B4: AAGTTGGTT (dsDNA)
DNA 1: AAGTTGGTT
DNA 2: AACCAACTT
With B4 the Kd [5] was 0.077 nM and the Kd [6] was 0.21 nM.

B5: CAGGGTGGC (dsDNA)
DNA 1: CAGGGTGGC
DNA 2: GCCACCCTG
Binder B5 has a Kd [7] of 6.1 nM and a Kd [8] of 4.1 nM.

B6: GAAGAGGGG (dsDNA)
DNA 1: GAAGAGGGG
DNA 2: CCCCTCTTC
B6 showed a Kd [9] of 0.421 nM.

B7: GAGGTGTCA (dsDNA)
DNA 1: GAGGTGTCA
DNA 2: TGACACCTC
B7 gave a Kd [10] of 0.027 nM and a Kd [11] of 0.025 nM.

B8: TCGGTCGCC (dsDNA)
DNA 1: TCGGTCGCC
DNA 2: GGCGACCGA
For B8, the Kd [12] was 74.1 nM.

B9: GCATGGGAA (dsDNA)
DNA 1: GCATGGGAA
DNA 2: TTCCCATGC
B9 showed a Kd [13] of 0.326 nM and a Kd [14] of 0.306 nM.

B10: TAGGGGGTGG (dsDNA)
DNA 1: TAGGGGGTGG
DNA 2: CCACCCCCTA
For B10, the Kd [15] was 1.5 nM.

B11: ACGTAGTAG (dsDNA)
DNA 1: ACGTAGTAG
DNA 2: CTACTACGT
B11 gave a Kd [16] of 0.23 nM, a Kd [17] of 1.4 nM and a Kd [18] of 0.69 nM. The Kd [19] was 0.69 nM and the Kd [20] was 0.118 nM.

B12: CCGGGAGCG (dsDNA)
DNA 1: CCGGGAGCG
DNA 2: CGCTCCCGG
For B12, the Kd [21] was 0.26 nM and the Kd [22] was 0.228 nM.

B13: GGGGAGGAT (dsDNA)
DNA 1: GGGGAGGAT
DNA 2: ATCCTCCCC
B13 was tested, and the Kd [23] was 3 nM, the Kd [24] was 2 nM and the Kd [25] was 1 nM.

B14: GAAGGAGAG (dsDNA)
DNA 1: GAAGGAGAG
DNA 2: CTCTCCTTC
For B14, the Kd [26] was 0.31 nM and the Kd [27] was 0.065 nM.

B15: GAGTGTGTG (dsDNA)
DNA 1: GAGTGTGTG
DNA 2: CACACACTC
For B15, the Kd [28] was 1.5 nM and the Kd [29] was 1.8 nM.

B16: GTGGTTGCG (dsDNA)
DNA 1: GTGGTTGCG
DNA 2: CGCAACCAC
B16 showed a Kd [30] of 0.117 nM and a Kd [31] of 0.051 nM.

B17: GTGGCACTG (dsDNA)
DNA 1: GTGGCACTG
DNA 2: CAGTGCCAC
In the case of B17, the Kd [32] is reported as 0.915 nM.

B18: GAGTAGGCA (dsDNA)
DNA 1: GAGTAGGCA
DNA 2: TGCCTACTC
B18 showed a Kd [33] of 0.065 nM, a Kd [34] of 0.101 nM and a Kd [35] of 0.019 nM.
